{
  "source": "the DeepSol protein solubility set",
  "data": [
    {"assay": "soluble on expression in E. coli; label from the status in PepcDB or PDB records", "values": [
      {"sequence": "MAHHHHHHMVRPEYSSPPEFFYNEEEAKKYVRNSRIRDIQSQMTERAMELLLLPDSPCLLLDIGCGSGISGMTLNELDHFWIGIDISIHMLRLQNEAHLGGDMLLADMGKLMRFQPCIFDGVVSISALQWLCNWDKKDESPVSRISTFFKWLYNCLKRGARAVFQFYPDSPEQIKTLTNFAMKAGFGGGVVVDFPNSAKSKKYYLCLWAGSSLVATMPTALNDEEENIISHERRKFNKKTKKQIKKNKEWILKKKDQRRMKGLDVKRDSKYTGRKRKGRF", "soluble on expression in E. coli": "not soluble"},
      {"sequence": "MRALPIADDVAGVIFALNGGDLGEDTGCVYYFAPDTLNWESLEVGYSEFLQWALSGDLDTFYENVRWQQWREDVIKLSATEAFTFYPFLWVQSEEARTRKVISLTELWEMQYQMKETFTQLEHHHHHH", "soluble on expression in E. coli": "not soluble"},
      {"sequence": "PAKLGYWKLRGLAQPVRLFLEYLGEEYEEHLYGRDDREKWMSEKFNMGLDLPNLPYYIDDKCKLTQSVAIMRYIADKHGMLGTTPEERARISMIEGAAMDLRIGFGRVCYNPKFEEVKEEYVKELPKTLKMWSDFLGDRHYLTGSSVSHVDFMLYETLDSIRYLAPHCLDEFPKLKEFKSRIEALPKIKAYMESKRFIKWPLNGWAASFGAGDAPPS", "soluble on expression in E. coli": "soluble"},
      {"sequence": "MRAPGVRAADGAGRVVLYLHGGAFVMCGPNSHSRIVNALSGFAESPVLIVDYRLIPKHSLGMALDDCHDAYQWLRARGYRPEQIVLAGDSAGGYLALALAQRLQCDDEKPAAIVAISPLLQLAKGPKQDHPNIGTDAMFPARAFDALAAWVRAAAAKNMVDGRPEDLYEPLDHIESSLPPTLIHVSGSEVLLHDAQLGAGKLAAAGVCAEVRVWPGQAHLFQLATPLVPEATRSLRQIGQFIRDATADSSLSPVHRSRYVAGSPRAASRGAFGQSPI", "soluble on expression in E. coli": "soluble"},
      {"sequence": "MGHHHHHHSHMSSSAGSGHQPSQSRAIPTRTVAISDAAQLPHDYCTTPGGTLFSTTPGGTRIIYDRKFLLDRRNSPMAQTPPCHLPNIPGVTSPGTLIEDSKVEVNNLNNLNNHDRKHAVGDDAQFEMDI", "soluble on expression in E. coli": "soluble"},
      {"sequence": "MGSDKIHHHHHHMKGAVTTDVEAGGLRGRMYASRATSDVRPRADAPTFVLIHGIGVSHRYLVRLHHVLAGVADTISIDLPGFGSTPRPDRQLMVADQAAFIHDVLDQAGVGLRVLVGHSMGAQFVLEAALQRPEQVPHVVLMGPVVDVRRRTLPRQILALTKDALLHETPGSNALVFSDYLRCGPLWYLKELRVMMNYRTEERIRGLTTPVMILRGASDPIATGEWCRILARRAPAGTLVEVPGCGHVVQHTGTAQVADAITGFTGLPGSGAPEQTVNRQ", "soluble on expression in E. coli": "not soluble"},
      {"sequence": "MKNTQLLTSLRYVLLGALTVTTSVVQAESIAITNATVYTVAKKGVLFQATVMVDEGKITAVYGKDEVPESLSADTIIDAKERILTPGFIATHNLLGLVEVGAVSDTRDSSDKDADITFDASLAFNPKSTLIAYARKGGITSSLVMPYGGEDVITGQSFVVNLSGDFDSVIMPQNAVIVSLGASGKGSRATKLQTLSNELEDAQKALAKAEKVKASSKKEKEEKEAETPSRSELVLNELLSGDKPLIAYADRATDILALLKLKQKFNLNLILAGASDAVLVSDEIAKANVVVMMSAIDNLPSSFDSLHNSLTNVAKLTDAGVKVIISNSGESYNINQLRFDAGVAVANGVAATTALAAVTANVADSFNLNSGRIAVGKNADLVLWSSDPFEISTKVDAMWINGQAMSLKSRQDALRQRYIVETDMPRAYTK", "soluble on expression in E. coli": "not soluble"},
      {"sequence": "MGSDKIHHHHHHCKDDDTLLRGSGITEQSWSTNQTYFASAEQTLTFTFTTLSSWTAQNSSTALLSLDNTAGNSGENTIKVTVHKSSQEQGTITIKVNGYSSASNIKIQLSDDDVQGYEINYSVDQYLREKYLWNDDYKLLTPNFRQAYDEFLRNTLLSMTTNTLDKKRNSNGTYSLFSFIQKLDPDLQTSRSAKEKKTLEYNYGFVNFIAVGNRNNSNYGLVIQGVHKGSSADKEGLKRGMEITEIDNQRITTTNVQACYSKLIKPSSPTSIKVKDKDGKVYTINSGPIYANPIIHHQVNEKIGYLVYSAFESGFDQELFDVFKEFKSQNITELILDLRYNGGGDVTSANLISSCIAGDLCIDKTFASYRYNDERMKVLGNQRPIQKFAYSQYDNLSTSLSAGGLNLRKIYCLVTDDSASASELVINALRGIDIEVILIGTTTHGKNVGMEGVELTAGTDKYLLFPITFQAYNAKGFGDFENGFTPDYEINENKPNGEYFEGYGDFGAESDPLYAKAISLISGNEVTTPTRAVNQAKEQMLVIATPRLNRIGMIK", "soluble on expression in E. coli": "not soluble"},
      {"sequence": "MTESITRDSMQYDVVIVGAGPSGLSAAIKLKQLAEQNGREISVCVVEKGSEVGAHSLAGAVIDPIALNELISDWKEKGAPLTRTVTQDKVLFLTEKKAFNLPITPNFDNHGNYIVSLGEVVRWLAEQAENMGVEIYPGFAAAEVLYHEDGSVKGIATGNMGIGKDGEPTDSFQPGMELWAQQTLFAEGCRGSLSKQIIERFQLDQNSQPQTYGLGIKEVWEVPSEQHQPGLVVHSAGWPLDSKTYGGAFVYHFDDNKVAVGFVVGLDYQNPYLSPFEEFQRFKTHPEIRKTFEGGRRIAYGARSLIEGGLQSLPKLSFKGGILVGDAAGFLNMPRIKGIHTAMKSAMLAAEAVFPLLENLEEVEGFDSGKEAADYQQRFEQSWLYQELYAARNVRPSFKWGVYLGSIYTGIDQMIFRGKAPWTLKHHGKDNEQLKKAAACKPIDYPKPDGVLTFDRLSSVFLANLAHEENQPDHLVLNNPQTMIDVNYKEYASPETRYCPAGVYEIVEENGNPRLQINAANCVHCKTCDIKDPTQNITWICPEGASGPNYGGM", "soluble on expression in E. coli": "not soluble"},
      {"sequence": "MGSDKIHHHHHHMDDLLLELARQYRNRYYGKYRGFVTDNDDPEQRGRLRLMVPSVLGETPTGWALPSLPFGGLADQGLFMVPEVDAQVWVEFEAGNVNLPIWTGTFWQASGDPPAEAAKSPPTTRVLKTPSGHILQFDDESGAEKFRLAHPAGTEMTVDEKGTVIVADAKGNTLTLDADAGKVVVEDSNGNTITMSSSGTTIEDANGNKVEMAASGVTVKGQQVVVDAQTVMLAGQGGEPIIKGQSFLTLFATHVHPSAMGPTGPPIPQGEMSTLSMKVMTS", "soluble on expression in E. coli": "not soluble"},
      {"sequence": "HHHMFNAKYVAEATGNFITVMDALKLNYNAKDQLHPLLAELLISINRVTRDDFENRSKLIDWIVRINKLSIGDTLTETQIRELLFDLELAYKSFYALLD", "soluble on expression in E. coli": "soluble"},
      {"sequence": "AKIGLFFGSNTGKTRKVAKSIKKRFDDETMSDALNVNRVSAEDFAQYQFLILGTPTLGEGELPGLSSDAENESWEEFLPKIEGLDFSGKTVALFGLGDQVGYPENYLDALGELYSFFKDRGAKIVGSWSTDGYEFESSEAVVDGKFVGLALDLDNQSGKTDERVAAWLAQIAPEFGLSL", "soluble on expression in E. coli": "soluble"},
      {"sequence": "MAHHHHHHMNHVRHALDMDNEYTMVLDIGTIRRPAAQHRSESFMAASTTEWETKVERAERLSLLEGKKGCCYFSLYPEDVSAAFHEDAKSFPDVFSVEDAFVHCARLNLPMGEVAALLPAIPTETAEQVMHNLAEKCVIASPQSLAMTFLGEMSARLPVDLDIASFIIGGCNVGLGEAAVAIGSVAALPFRSITPLTYSSVPWNEATTWSREKYAGDIARHSDLLADTLVFIEWLKLRARGESTAEFLNTILVQEFKFVKIEGLMKYIREQLTNYVFLDRFDTLELLEDVSTSVQENSTIFLFLQAVALARRAAFIRDAGHLNEKDRYASMAFVRTSKRLMPHNYIPSSIKWDTGRILIPVILKNSTNILAGLFSLIHTPYFFASLLLLYPYVEYSKPVITDKGRVVYFGVSCNRQMKRFMVSIEEAAQILDFREKINLALSCMQALRTLSHPILKTKFLLILKKHDRLFDVERLHKNIRSQLLELVTELNVTEHQGSFETFATHCTAPKELLPMTDTPAMDVSVLRRFVDGTLWDSLPTPGSVVKPRAASFAGTPSTLPSAPLISTNDEDDDEEVEIIQDSYFMRHGPLIEDDDDD", "soluble on expression in E. coli": "not soluble"},
      {"sequence": "MNLIPQDVLKKYLLPIRDLATSTFVFKKKYTRECQRSTPRNFINQFLLLFLKVPFSLLQELKLSKMLEIDKDKKVLIGCLAGSFLFYHTARQIYSYMSVKPREWVPVGVVKSLHIFPIKSCKSVDVFAFKCTKLGPVMGDLEDRAFMLVEESTGKFITARQKPKLVHVENYMTDGMLEVTVPGQPKLSVDLRKVLQNKRTIRATLFKNLKQDGYDCGDEVAKLLSDYIEEPNYRLIFYKEGLYTERTVIPDDQWWNNPVPKRNDDSGFTDLAPFHIATDASLKVLNEKLDNKITMRYFRPSIYIEGCAAWDEDKWAEIRIGDAHLECFAPCTRCVLTTVDPVKGEMSKEMQPLKKLREFRLVPDGKMRKVHMESPVFGVYAGLVNEGYIHTGQTVYVRYKPTAF", "soluble on expression in E. coli": "not soluble"},
      {"sequence": "MSNEPESTQHKSALQGLKGYLSSQILGQEKLVDRLLIALLADGHLLVEGAPGLAKTKAIKDLAEGLEAEFHRIQFTPDLLPADITGTEIYRPETGTFVFQQGPIFHHLVLADEINRAPAKVQSALLEAMAERQVSVGRSTYDLPQLFLVMATQNPIEQEGTYPLPEAQLDRFLMHVKIGYPEASVERRILQQARGEALNGEARPERRVTQETIFAARQEILGLYMADAVEEYLVQLIMATRTPAKHDAELAEWISYGASPRGSIALDRCARAHAWLGGRDFVSPEDIQAVLFDVLRHRLILTFEAEAAGIDQDRVVQRILDVVAVALEHHHHHH", "soluble on expression in E. coli": "soluble"},
      {"sequence": "SNAMANFEDFLTLDLRIGTVTHAEEFKEARVPAIRLEIDFGELGMKQSSAQITKRYNPEDLIGQQIVAVVNFPPKRVAGFKSEVLVLGGVPEAGDVVLLQPNMELPNGTKIS", "soluble on expression in E. coli": "soluble"},
      {"sequence": "MGKKAKLGHKTGVNKGILLTDRQRLNWLRLLRSENIGAVSFRNLIDHYKTAENALAALPELSRKGGLATSIRIATLEDAEKEMQEAEKLGIRFVGIGEPDYPTFLKVTEASPPLIAIKGNVSVFEKASVGIVGSRNASAAGKKLAAQFAHFLGNADFTIISGLARGIDSIAHQASLQTGTVAVMAGGIDHIYPPENKKLHEDIIANGGAIISEMPIGWKPRAIDFPRRNRIIAGLSLGLLVVEAALQSGSLITARQAAEMGRLTFAIPGSPLDPRSVGTNNLLKDGALLTTHPSDIIETLTPLIPTPTNHQLNFFEELPSLQLEKDCFNSSDKKTKITSFVGDERERRAVLSALSTTPIDLDTLSTNSGVSLSNLYLLLVELELAGKLIRHSGGYVSLSNFDLLQEPPHY", "soluble on expression in E. coli": "not soluble"},
      {"sequence": "PPNEQAVLNMYEGKRSELSQIYSNITDLEMQVSEHSLVINAIQPLDQSRKCFRMIGGVLVERTIKEVLPAVQRNKDGLEEVVRKLYETLEKKKKDLTEFEAKYKIRITKQEDNKEGGNKKEGNAQGVLVGAASSSQ", "soluble on expression in E. coli": "not soluble"},
      {"sequence": "SKGRPQIDSSKATDKINPMDFTFVEINEAVKLVEMGVATPQDIDTAIKLGLNRPFGPFELAKQFGAEQIAKRLEELAKQFGKKIFEPAKTLKEGKLEELLKAGKAE", "soluble on expression in E. coli": "soluble"},
      {"sequence": "MGSDKIHHHHHHMSERKPIPKSVKKVLRSEVGFGCPVKGCGNPYLEYHHFDPPVSVKPHNEPEGMIALCAQHHKKADGGAYTIEQLHALKKDKANAKLVRGNLDWLRKDLLAVVGGNFYYETPRIITIDNIDLVSLVRDEDGYLRLNVNMLSLEPDERIIIEENSWENIGSPLDLRSPPQGKELEISYHNGDYLYLRFIELQSFEQAQQRYETDVFKDITFPITAVEVNMTIAGTRIELTPISSQLGGIKMTGCLSSHCGGGVVIQNSGIQWKQNPVWKRKTLVEETEHPNVVKVNFGRR", "soluble on expression in E. coli": "not soluble"},
      {"sequence": "MITLPTGTKIWIIAGITDMRCGFNGLASKVQNTLKDDPFSGHIFVFRGRSGKMVKILWADRDGLCLFAKRLERGRFVWPVTREGKVHLTPAQLSMLLEGIAWPHPKRTERPGIRI", "soluble on expression in E. coli": "not soluble"}
    ]}
  ]
}
